We go through 4 substances from paper PMC10133702.

pIC50: −log10 of the molar value. Like-named read-outs stand apart in the source and are kept apart here.

Common to all, as to test: radioligand binding
For assay [1], the target named is Ubiquitin (Ub)-tagged Ls-AChBP, wild type (Lymnaea stagnalis) (UniProt P58154).
Assay [2] addresses [Q55K]Ls-AChBP, Ub-tagged (Lymnaea stagnalis) (UniProt P58154).
Assay [3] deals with [S186E]Ls-AChBP, Ub-tagged (Lymnaea stagnalis) (UniProt P58154).
Assay [4] deals with [T184F S186E]Ls-AChBP, Ub-tagged (Lymnaea stagnalis) (UniProt P58154).
In assay [5] the target is [T184F]Ls-AChBP, Ub-tagged (Lymnaea stagnalis) (UniProt P58154).
The target in assay [6] is [T184K]Ls-AChBP, Ub-tagged (Lymnaea stagnalis) (UniProt P58154).
In assay [7] the target is Ubiquitin (Ub)-tagged Ls-AChBP, wild type (Lymnaea stagnalis) (UniProt P58154). The source holds these as a separate data set.
Assay [8] deals with [H69A]Ls-AChBP, Ub-tagged (Lymnaea stagnalis) (UniProt P58154).
Assay [9] addresses [R23D]Ls-AChBP, Ub-tagged (Lymnaea stagnalis) (UniProt P58154).

Regarding “VxXXB-C(21–50), C-terminal domain of αD-conotoxin VxXXB (peptide)”, the pIC50 was 5.00 in assay [1]; 4.44 in assay [2]; 7.40 in [3]; 7.30 in [4]; 5.14 in assay [5]; 4.26 in assay [6].
With “VxXXB-C(19–50), full-length C-terminal domain of αD-conotoxin VxXXB (peptide)”, the pIC50 in assay [1] is 5.14; in [2], 4.53; in assay [3], 7.05; in assay [4] it was 7.52; in assay [5] it was 6.24; in assay [6], below 4.00. Besides, the pIC50 in [7], in [8] and in [9] was 5.00 each time.
With “native αD-conotoxin VxXXB (from UniProt P0C1W6 46-95) (natural protein)”, the pIC50 in assay [1] is 7.96; in assay [4], 9.00.
As to “VxXXB-CNC, full-length synthetic VxXXB (peptide)”, the pIC50 was 8.40 in assay [4], 6.10 in assay [7], below 5.00 in assay [8] and below 5.00 in [9].

The term pIC50 denotes the IC50 on a negative log10 scale, so that one unit is a factor of ten. Low readings indicate a high IC50, high ones a low IC50.
